Test results reported in PMC7380208.

Target: Recombinant SARS-CoV-2 spike protein ectodomain, native glycosylation (SARS-CoV-2) (UniProt P0DTC2)
Experiment: ELISA

Flt3 Receptor Interacting Lectin (FRIL) from Lablab purpureus (from UniProt Q9ZTA9) (natural protein)
lowest FRIL concentration at which binding was seen: 10 ng/mL
